Patent publication US20150284436A1 (published 2015)
Blank lines part the entries; values can stand above or below the binder they belong to.

B4: human TRX (thioredoxin), wild-type, tag-free (enzyme)
chain: MVKQIESKTAFQEALDAAGDKLVVVDFSATWCGPCKMIKPFFHSLSEKYSNVIFLEVDVDDCQDVASECEVKCMPTFQFFKKGQKVGEFSGANKEKLEATINELV
notes: Expressed tag-free under the T7 promoter together with TXNIP constructs in E. coli; also called native TRX; endogenous TRX
B5: N-TXNIP (N-terminal domain of TXNIP, residues 3-156) (other)
chain: MFKKIKSFEVVFNDPEKVYGSGERVAGRVIVEVCEVTRVKAVRILACGVAKVLWMQGSQQCKQTSEYLRYEDTLLLEDQPTGENEMVIMRPGNKYEYKFGFELPQGPLGTSFKGKYGCVDYWVKAFLDRPSQPTQETKKNFEVVDLVDVNTPDL
notes: The NMR sample was 15N-labeled and its hexahistidine-tag was removed by rTEV; In the Ni-NTA co-purification it carried the N-terminal hexahistidine-tag; also called N-terminal TXNIP; ^15N-labeled N-TXNIP

Key:
TRX(C35A), tag-free [1] = target: T1, TRX(C35A), tag-free (human, UniProt P10599 1-105); assay: co-crystal structure, X-ray, 2.7 Å
T1 construct: Human TRX with alanine for cysteine at position 35; Co-expressed tag-free with T-TXNIP mutants or N-TXNIP; also called modified TRX protein
T1 chain: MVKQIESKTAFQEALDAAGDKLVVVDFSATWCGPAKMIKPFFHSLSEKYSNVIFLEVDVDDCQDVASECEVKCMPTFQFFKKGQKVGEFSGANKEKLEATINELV

HA-tagged TXNIP = target: T2, HA-tagged TXNIP (human, UniProt Q9H3M7 1-391); assay: anti-FLAG agarose immunoprecipitation from HEK 293T lysates (50 mM iodoacetamide), Western blot
T2 construct: Expressed in HEK 293T cells
T2 sequence: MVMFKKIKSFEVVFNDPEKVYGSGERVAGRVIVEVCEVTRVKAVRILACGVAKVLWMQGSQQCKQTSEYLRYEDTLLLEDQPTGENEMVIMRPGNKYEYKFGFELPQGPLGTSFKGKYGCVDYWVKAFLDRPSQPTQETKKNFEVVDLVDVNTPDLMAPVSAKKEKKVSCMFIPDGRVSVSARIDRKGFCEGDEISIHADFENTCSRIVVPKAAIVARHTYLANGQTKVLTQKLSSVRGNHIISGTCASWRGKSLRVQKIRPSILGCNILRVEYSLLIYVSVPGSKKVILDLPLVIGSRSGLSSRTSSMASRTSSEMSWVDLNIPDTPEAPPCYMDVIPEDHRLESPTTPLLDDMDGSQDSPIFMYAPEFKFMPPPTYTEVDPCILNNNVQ
Protocol: To test the in vivo interprotomer interaction between TXNIP molecules, HEK 293T cells were transfected with plasmids expressing HA-tagged-TXNIP and FLAG-tagged T-TXNIP. 24 hours later, the cells were harvested and lysed in the 50 mM iodoacetamide-containing buffer [0.5% Triton X-100, 150 mM NaCl, 10% glycerol, 1 mM NaF, 1 mM AEBSF, 2 μg/mL leupeptin, 5 μg/mL aprotinin and 20 mM HEPES (pH 7.2)]. After centrifugation at 16,000 rpm for 20 minutes, the supernatant was incubated with anti-FLAG M2 agarose (Sigma) at 4° C. for 12 hours. The immobilized proteins were collected by centrifugation and washed three times with the lysis buffer. The bound proteins were subjected to SDS-PAGE under reduced and non-reduced conditions. […] 24 hours later, the cells were harvested and lysed in the lysis buffer. After centrifugation at 16,000 g for 20 minutes, the supernatants were incubated at 4° C. for 12 hours with monoclonal anti-FLAG M2 agarose beads (Sigma) for immunoprecipitation, or with glutathione-conjugated sepharose beads (GE Healthcare) for pull-down assay. The immobilized proteins were collected by centrifugation and washed three times with lysis buffer. Bound proteins or WCLs were eluted by boiling in SDS sample buffer. […]

TRX(C35A), tag-free [2] = target: T1, TRX(C35A), tag-free; assay: size-exclusion chromatography
Protocol: A Superdex™ 200 10/300 GL gel filtration column (GE Healthcare) installed on an Acta purifier FPLC system (GE Healthcare) was equilibrated with 50 mM Tris-HCl (pH 8.0), 500 mM NaCl, and 10% glycerol at a flow rate of 0.4 ml/min at room temperature. Purified TRX-T-TXNIP and its mutants were injected onto the column. Ovalbumin was used as a molecular weight standard.
The structures of COM1 and COM2 are essentially identical, each contains two heterodimeric complexes of TRX and T-TXNIP in an asymmetric unit, with a large interface between the two T-TXNIP molecules (FIGS. 5A and B). […] Thus, the interfaces between the T-TXNIP molecules in the crystal structures merely constitute large crystal contacts.

[3] = target: B4; assay: GST pull-down from transfected HEK 293T lysates, immunoblot
[4] = target: T3, T-TXNIP (TXNIP residues 3-317) (human, UniProt Q9H3M7 3-317); assay: as above
T3 construct: In E. coli it was expressed with an N-terminal hexahistidine-tag that was removed by rTEV protease; also called native T-TXNIP; T-TXNIP(3-317)
T3 sequence: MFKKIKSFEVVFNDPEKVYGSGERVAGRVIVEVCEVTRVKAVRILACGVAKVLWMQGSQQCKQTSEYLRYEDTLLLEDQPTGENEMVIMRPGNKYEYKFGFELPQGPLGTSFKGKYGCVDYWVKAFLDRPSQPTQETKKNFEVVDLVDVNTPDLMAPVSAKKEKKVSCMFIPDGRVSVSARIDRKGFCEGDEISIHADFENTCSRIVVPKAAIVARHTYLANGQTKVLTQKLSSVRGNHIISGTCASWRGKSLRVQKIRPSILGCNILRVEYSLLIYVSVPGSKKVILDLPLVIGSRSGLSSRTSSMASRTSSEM

[5] = target: T4, TRX, wild-type, with C-terminal hexahistidine-tag (NMR sample) (human, UniProt P10599 1-105); assay: 1H-15N HSQC NMR titration of 15N-labeled N-TXNIP
T4 construct: also called unlabeled, reduced TRX; wild-type TRX; not shown: C-terminal hexahistidine-tag from pET21 vector
T4 sequence: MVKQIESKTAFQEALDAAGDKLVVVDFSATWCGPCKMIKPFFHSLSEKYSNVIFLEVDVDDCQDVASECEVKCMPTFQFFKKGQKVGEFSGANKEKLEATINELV
Protocol: (§1) NMR interaction experiments were carried out by recording ¹H-¹⁵N NMR HSQC spectra of ¹⁵N-labeled N-TXNIP upon addition of unlabeled TRX or its mutant, which was reduced with 5 mM DTT and dialyzed against 50 mM potassium phosphate (pH 6.6) prior to the interaction study to remove excess DTT.
(§2) The ¹H-¹⁵N HSQC spectra of all proteins were measured on a Bruker 900 MHz NMR spectrometer at the Korea Basic Science Institute (Ochang, Korea). The NMR measurements were performed using 0.3 mM ¹⁵N-labeled protein in 50 mM potassium phosphate (pH 6.6) containing 10% D₂O at 25° C. All NMR spectra were processed with Topspin 2.1 and analyzed with the program SPARKY 3.1.
To evaluate the involvement of N-TXNIP in the interaction of TXNIP with TRX, an NMR-titration experiment was performed by recording a series of ¹H-¹⁵N heteronuclear single quantum coherence (HSQC) spectra of ¹⁵N-labeled N-TXNIP after addition of unlabeled, reduced TRX.

[6] = target: B5; assay: 1H-15N HSQC NMR of 15N-labeled N-TXNIP
Protocol: as §1, §2
(§3) Further, TRX muteins were added and ¹H-¹⁵N HSQC spectra of ¹⁵N-labeled N-TXNIP were monitored to examine interaction between N-TXNIP and TRX. […] In contrast, C62A, C69A, and C73A mutants caused a chemical shift similar to the wild-type TRX (FIG. 12).

[7] = target: T4, TRX, wild-type, with C-terminal …; assay: 1H-15N HSQC NMR
Protocol: as §1, §2, §3

B1: T-TXNIP(C170S/C205S/C267S) (other)
chain: MFKKIKSFEVVFNDPEKVYGSGERVAGRVIVEVCEVTRVKAVRILACGVAKVLWMQGSQQCKQTSEYLRYEDTLLLEDQPTGENEMVIMRPGNKYEYKFGFELPQGPLGTSFKGKYGCVDYWVKAFLDRPSQPTQETKKNFEVVDLVDVNTPDLMAPVSAKKEKKVSSMFIPDGRVSVSARIDRKGFCEGDEISIHADFENTSSRIVVPKAAIVARHTYLANGQTKVLTQKLSSVRGNHIISGTCASWRGKSLRVQKIRPSILGSNILRVEYSLLIYVSVPGSKKVILDLPLVIGSRSGLSSRTSSMASRTSSEM
notes: 1; The N-terminal hexahistidine-tag was removed by rTEV protease; also called modified TXNIP protein of COM2
- binding result (TRX(C35A), tag-free [1]): binds

Binder: B4
- binding result [4]: binds

Binder: B5
- binding result [5]: binds

B6: TRX C73A mutant (NMR sample) (enzyme)
chain: MVKQIESKTAFQEALDAAGDKLVVVDFSATWCGPCKMIKPFFHSLSEKYSNVIFLEVDVDDCQDVASECEVKAMPTFQFFKKGQKVGEFSGANKEKLEATINELV
notes: not shown: C-terminal hexahistidine-tag from pET21 vector
- binding result [6]: binds

B7: TRX C62A mutant (NMR sample) (enzyme)
chain: MVKQIESKTAFQEALDAAGDKLVVVDFSATWCGPCKMIKPFFHSLSEKYSNVIFLEVDVDDAQDVASECEVKCMPTFQFFKKGQKVGEFSGANKEKLEATINELV
notes: as for B6
- binding result [6]: binds

B9: TRX C69A mutant (NMR sample) (enzyme)
chain: MVKQIESKTAFQEALDAAGDKLVVVDFSATWCGPCKMIKPFFHSLSEKYSNVIFLEVDVDDCQDVASEAEVKCMPTFQFFKKGQKVGEFSGANKEKLEATINELV
notes: as for B6
- binding result [6]: binds

B10: N-TXNIP C120S mutant (^15N-labeled) (other)
chain: MFKKIKSFEVVFNDPEKVYGSGERVAGRVIVEVCEVTRVKAVRILACGVAKVLWMQGSQQCKQTSEYLRYEDTLLLEDQPTGENEMVIMRPGNKYEYKFGFELPQGPLGTSFKGKYGSVDYWVKAFLDRPSQPTQETKKNFEVVDLVDVNTPDL
- binding result [7]: no binding

Other lines, results leading:

- binding result (HA-tagged TXNIP): binds
B2: FLAG-tagged T-TXNIP (other)
chain: MFKKIKSFEVVFNDPEKVYGSGERVAGRVIVEVCEVTRVKAVRILACGVAKVLWMQGSQQCKQTSEYLRYEDTLLLEDQPTGENEMVIMRPGNKYEYKFGFELPQGPLGTSFKGKYGCVDYWVKAFLDRPSQPTQETKKNFEVVDLVDVNTPDLMAPVSAKKEKKVSCMFIPDGRVSVSARIDRKGFCEGDEISIHADFENTCSRIVVPKAAIVARHTYLANGQTKVLTQKLSSVRGNHIISGTCASWRGKSLRVQKIRPSILGCNILRVEYSLLIYVSVPGSKKVILDLPLVIGSRSGLSSRTSSMASRTSSEM
notes: Expressed in HEK 293T cells

- binding result (TRX(C35A), tag-free [2]): binds
- binding result [3]: binds
B3: T-TXNIP(C120S/C170S/C205S/C267S) (other)
chain: MFKKIKSFEVVFNDPEKVYGSGERVAGRVIVEVCEVTRVKAVRILACGVAKVLWMQGSQQCKQTSEYLRYEDTLLLEDQPTGENEMVIMRPGNKYEYKFGFELPQGPLGTSFKGKYGSVDYWVKAFLDRPSQPTQETKKNFEVVDLVDVNTPDLMAPVSAKKEKKVSSMFIPDGRVSVSARIDRKGFCEGDEISIHADFENTSSRIVVPKAAIVARHTYLANGQTKVLTQKLSSVRGNHIISGTCASWRGKSLRVQKIRPSILGSNILRVEYSLLIYVSVPGSKKVILDLPLVIGSRSGLSSRTSSMASRTSSEM
notes: 1; The N-terminal hexahistidine-tag was removed by rTEV protease; also called T-TXNIP(C120,170,205,267S); modified TXNIP protein of COM1

- binding result [7]: no binding
B8: N-TXNIP C63S mutant (^15N-labeled) (other)
chain: MFKKIKSFEVVFNDPEKVYGSGERVAGRVIVEVCEVTRVKAVRILACGVAKVLWMQGSQQSKQTSEYLRYEDTLLLEDQPTGENEMVIMRPGNKYEYKFGFELPQGPLGTSFKGKYGCVDYWVKAFLDRPSQPTQETKKNFEVVDLVDVNTPDL
